PMC7102982

Molecular target: Xenopus laevis FANCA, full length (Xenopus laevis)
Assay: cryo-EM structure; single-particle cryo-EM of the purified FANCA-FANCG complex (0.8 mg/ml, 0.003% DDM); four classes: FANCA CTD dimer at 3.35 and 3.46 A, two FANCA-FANCG complexes at 4.59 and 4.84 A

stoichiometry N: 2
Substance: Xenopus laevis FANCA, full length (natural protein)
